Among the data in PMC7280531 (2020) are Kd and Ka values, retold here.

Where no end group is shown, it is not given here. [ ]: non-standard residue; d: D form. Ahx = NCCCCCC(=O)O

Sequences and labels used below:
B1: xStAx (peptide)
chain: Ac-RRWPQLILDLHVRRVWR
modifications: staple (positions not given here); not fully specified (C-terminus); also: further groups not given here
B2: β-catenin (natural protein)
chain: MATQADLMELDMAMEPDRKAAVSHWQQQSYLDSGIHSGATTTAPSLSGKGNPEEEDVDTSQVLYEWEQGFSQSFTQEQVADIDGQYAMTRAQRVRAAMFPETLDEGMQIPSTQFDAAHPTNVQRLAEPSQMLKHAVVNLINYQDDAELATRAIPELTKLLNDEDQVVVNKAAVMVHQLSKKEASRHAIMRSPQMVSAIVRTMQNTNDVETARCTAGTLHNLSHHREGLLAIFKSGGIPALVKMLGSPVDSVLFYAITTLHNLLLHQEGAKMAVRLAGGLQKMVALLNKTNVKFLAITTDCLQILAYGNQESKLIILASGGPQALVNIMRTYTYEKLLWTTSRVLKVLSVCSSNKPAIVEAGGMQALGLHLTDPSQRLVQNCLWTLRNLSDAATKQEGMEGLLGTLVQLLGSDDINVVTCAAGILSNLTCNNYKNKMMVCQVGGIEALVRTVLRAGDREDITEPAICALRHLTSRHQEAEMAQNAVRLHYGLPVVVKLLHPPSHWPLIKATVGLIRNLALCPANHAPLREQGAIPRLVQLLVRAHQDTQRRTSMGGTQQQFVEGVRMEEIVEGCTGALHILARDVHNRIVIRGLNTIPLFVQLLYSPIENIQRVAAGVLCELAQDKEAAEAIEAEGATAPLTELLHSRNEGVATYAAAVLFRMSEDKPQDYKKRLSVELTSSLFRTEPMAWNETADLGLDIGAQGEPLGYRQDDPSYRSFHSGGYGQDALGMDPMMEHEMGGHHPGADYPVDGLPDLGHAQDLMDGLPPGDSNQLAWFDTDL
B3: xStAx-VHLL (peptide)
chain: RRWPQLILDLHVRRVWR[Ahx]ALAPYIP
modifications: staple (positions not given here); not fully specified (C-terminus); also: further groups not given here

What all share (assay): ITC
Experiment [1] deals with B2.
Experiment [2] deals with B2.
The next experiment addresses SAHPA1 (stapled: side chains of olefin residues (S5, R8) cross-linked by ring-closing metathesis, positions in Figure 1a; N-terminus treated with acetic anhydride (typical protocol)).
Another experiment concerns the target SAHPA1-VHLL (stapled: side chains of olefin residues (S5, R8) cross-linked by ring-closing metathesis, positions in Figure 1a; 6-aminocaproic acid (Ahx) linker between the stapled peptide and the VHL ligand).

By Kd is commonly meant the concentration at which binding is half-saturated. A higher Kd goes with weaker binding. The molecule B1 returned a dissociation constant (Kd) with β-catenin [1] of 37 µM. In the experiment with β-catenin [2], this molecule displayed a Ka of 27000 M⁻¹.
With B2, in the experiment with SAHPA1, the Ka amounted to 26400 M⁻¹ and the Kd is 38 µM. Further, in the experiment with SAHPA1-VHLL, the Ka came to 18100 M⁻¹ and the Kd came to 55 µM.
In turn, B3 had a dissociation constant Kd with β-catenin [1] of 12 µM.
